Sequences and labels used below:
B2: BMP-9 (ligand, UniProt Q9UK05 320-429, looked up)
chain: SAGAGSHCQKTSLRVNFEDIGWDSWIIAPKEYEAYECKGGCFFPLADDVTPTKHAIVQTLVHLKFPTKVGKACCVPTKLSPISVLYKDDMGVPTLKYHYEGMSVAECGCR
notes: also called bone morphogenetic protein 9
B7: GDF-11 (ligand, UniProt O95390 299-407, looked up)
chain: NLGLDCDEHSSESRCCRYPLTVDFEAFGWDWIIAPKRYKANYCSGQCEYMFMQKYPHTHLVQQANPRGSAGPCCTPTKMSPINMLYFNDKQQIIYGKIPGMVVDRCGCS
notes: also called growth and differentiation factor 11
B8: Activin A (ligand, UniProt P08476 311-426, looked up)
chain: GLECDGKVNICCKKQFFVSFKDIGWNDWIIAPSGYHANYCEGECPSHIAGTSGSSLSFHSTVINHYRMRGHSPFANLKSCCVPTKLRPMSMLYYDDGQNIIKKDIQNMIVEECGCS
B9: Activin B (ligand, UniProt P09529 293-407, looked up)
chain: GLECDGRTNLCCRQQFFIDFRLIGWNDWIIAPTGYYGNYCEGSCPAYLAGVPGSASSFHTAVVNQYRMRGLNPGTVNSCCIPTKLSTMSMLYFDDEYNIVKRDVPNMIVEECGCA
B10: BMP-10 (ligand, UniProt O95393 317-424, looked up)
chain: NAKGNYCKRTPLYIDFKEIGWDSWIIAPPGYEAYECRGVCNYPLAEHLTPTKHAIIQALVHLKNSQKASKACCVPTKLEPISILYLDKGVVTYKFKYEGMAVSECGCR

In test [1] the target is B8. The test is described as follows: cell-based or functional assay.
Test [2] has as its target B9. As to the kind of experiment: cell-based or functional assay.
In test [3] the target is B2. As to the kind of experiment: cell-based or functional assay.
Test [4] has as its target B7. The test is described as follows: cell-based or functional assay.
Test [5] addresses B8. As to the kind of experiment: SPR (Biacore 8K), Fc protein captured on anti-human IgG, ligand injected. As to the method: (§1) The Cytiva Biacore 8k was used to measure the kinetics of the interactions between the ActRII- and chimera-Fc proteins and Activin A/Activin B/growth differentiation factor 8 (GDF-8)/GDF-11/BMP-9/BMP-10. Series S CM4 Sensor Chips were immobilized with anti-human capture antibody using the reagents and protocol in the Biacore Human Antibody Capture Kit (GE Life Sciences). Briefly, anti-human IgG was diluted to 25 μg/mL in immobilization buffer. The carboxylated surface of the sensor was activated by injecting a mixture of EDC and NHS. The anti-human IgG was injected into the activated sensor chip flow cells at 10 μL/min for a total of 7 minutes until the chip reached an immobilization level of 3000 resonance units (RU). Ethanolamine was injected to deactivate the sensor surfaces. The chip has 8 flow cells to be used for binding analysis, each with an in-line reference surface to subtract instrument noise and non-specific binding to the sensor chip. The ActRII- and chimera-Fc proteins were captured in their own flow cell to allow for a maximum analyte binding response of 20-30 RU. This was done by injecting 10-20 μL of the ActRII- and chimera-Fc proteins into the flow cells at a concentration of 2 μg/mL until 60-90 RU was captured. Ligand at a single concentration was injected at […] for 60 seconds and then allowed to dissociate under buffer flow for no less than 5 minutes. After the cycle completed, captured protein was stripped from the chip with an injection of 3 M magnesium chloride, the regeneration buffer provided with the Biacore Human Antibody Capture Kit. Each ligand was injected in a concentration series, including a buffer only 0 nM concentration to serve as a double reference for subtracting out instrument noise. The data were analyzed using the Biacore Insight Evaluation Software.

Test [6] has as its target T1, growth differentiation factor 8 (GDF-8) (UniProt O14793 267-375).
T1 construct: also called myostatin
T1 sequence (looked up): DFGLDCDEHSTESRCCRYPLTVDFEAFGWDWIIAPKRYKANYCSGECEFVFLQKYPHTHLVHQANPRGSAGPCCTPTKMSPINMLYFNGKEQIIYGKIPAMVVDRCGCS
The test is described as above. On the procedure: as §1

In test [7] the target is B9. Described as above. On the procedure:
as §1

Test [8] has as its target B2. The test is described as above. As to the method: as §1
For the test “BMP-10”, the target named is B10. The description is as above. As to the method:
as §1

For test [9], the target named is B7. The description is as above. On the procedure: as §1
For test [10], the target named is T2, ActRIIB-A1 (SEQ ID NO: 120) chimera-Fc protein (Homo sapiens (Human), UniProt Q13705 28-134).
T2 construct: Tested as chimera-Fc protein; not shown: linker (if any) and Fc domain
T2 sequence: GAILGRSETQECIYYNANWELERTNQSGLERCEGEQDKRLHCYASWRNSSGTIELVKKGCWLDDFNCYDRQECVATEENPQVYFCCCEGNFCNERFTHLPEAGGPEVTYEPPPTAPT
The test is described as above. On the procedure: as §1

In test [11] the target is T3, ActRIIB (SEQ ID NO: 31) Fc protein (human, UniProt Q13705 20-134).
T3 construct: also called ActRII-Fc; wild-type extracellular ActRIIB; not shown: linker (if any) and Fc domain
T3 sequence: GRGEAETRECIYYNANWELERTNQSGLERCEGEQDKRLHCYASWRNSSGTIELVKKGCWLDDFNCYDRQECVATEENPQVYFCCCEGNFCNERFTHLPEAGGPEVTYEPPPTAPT
The description is as above. On the procedure: as §1

B1: ActRIIA-A8 (SEQ ID NO: 110) chimera-Fc protein (Fc fusion)
chain: GAILGRSETQECLFFNANWEKDRTNQTGVEPCYGDKDKRRHCFATWKNISGSIEIVKQGCWLDDINCYDRTDCVEKKDSPEVYFCCCEGNMCNEKFSYFPEAGGPEVTYEPPPTAPT
notes: Tested as chimera-Fc protein; not shown: linker (if any) and Fc domain
As to B1, the “IC50, SBE-luciferase reporter in HEK293 cells” value (“IC50, SBE-luciferase reporter” below) worked out at 0.075 µg/mL with Activin A [1], 0.1 µg/mL with Activin B [2] and 0.18 µg/mL with GDF-11 [4]. In the test with BMP-9 [3], the “IC50, BRE-luciferase reporter in C2C12 cells” value (shortened to “IC50, BRE-luciferase reporter”) is 1.9 µg/mL. In addition, the dissociation constant Kd in the test with Activin A [5] was 0.04 nM; in [6], 0.229 nM; with Activin B [7], under 0.001 nM; with BMP-9 [8], 8.1 nM; with BMP-10, 0.0397 nM; with GDF-11 [9], under 0.001 nM.

On to B2, for which the results for the equilibrium dissociation constant (Kd) in test [10] and in test [11] were 0.0151 nM and 0.0358 nM, respectively.

B3: ActRIIA-B2B4 (SEQ ID NO: 103) chimera-Fc protein (Fc fusion)
chain: GAILGRSETQECLEFNANWEKDRTNQSGLERCYGDKDKRRHCFATWKNISGTIELVKKGCWLDDINCYDRTDCVEKKDSPEVYFCCCEGNMCNEKFSYFPEMEVTQPTS
notes: as for B1
As to B3, the “IC50, SBE-luciferase reporter” value was found to be 0.7 µg/mL with Activin A [1], 0.16 µg/mL in the test with Activin B [2] and 0.29 µg/mL with GDF-11 [4]. In addition, the “IC50, BRE-luciferase reporter” value with BMP-9 [3] was over 50 µg/mL. Besides, the Kd with Activin A [5] is 0.016 nM; in test [6], 0.0672 nM; with Activin B [7] it was under 0.001 nM; in the test with BMP-9 [8], 13.1 nM; with BMP-10 it was 0.0605 nM; with GDF-11 [9] it was under 0.001 nM.

B4: ActRIIA-B7 (SEQ ID NO: 100) chimera-Fc protein (Fc fusion)
chain: GAILGRSETQECLFFNANWEKDRTNQTGVEPCYGDKDKRRHCFATWKNISGSIEIVKQGCWLDDINCYDRTDCVEKKDSPEVYFCCCEGNMCNERFTHLPEMEVTQPTS
notes: as for B1
As to B4, the “IC50, SBE-luciferase reporter” value is 0.84 µg/mL with Activin A [1], 0.18 µg/mL in the test with Activin B [2] and 0.23 µg/mL in the test with GDF-11 [4]. Also, the “IC50, BRE-luciferase reporter” value with BMP-9 [3] stood at 21 µg/mL. In addition, the Kd with Activin A [5] is 0.024 nM; in test [6], 0.0121 nM; with Activin B [7], 0.00889 nM; with BMP-9 [8], 58.9 nM; in the test with BMP-10 it was 0.141 nM; in the test with GDF-11 [9], under 0.001 nM.

B5: ActRIIA-B4 (SEQ ID NO: 98) chimera-Fc protein (Fc fusion)
chain: GAILGRSETQECLFFNANWEKDRTNQTGVEPCYGDKDKRRHCFATWKNISGTIELVKKGCWLDDINCYDRTDCVEKKDSPEVYFCCCEGNMCNEKFSYFPEMEVTQPTS
notes: as for B1
For the molecule B5, the “IC50, SBE-luciferase reporter” value in the test with Activin A [1] came out at 0.32 µg/mL; with Activin B [2], 0.094 µg/mL; with GDF-11 [4], 0.22 µg/mL. Moreover, the “IC50, BRE-luciferase reporter” value with BMP-9 [3] is over 50 µg/mL. Also, the dissociation constant Kd with Activin A [5] is 0.0186 nM; in test [6] it was 0.115 nM; with Activin B [7], under 0.001 nM; in the test with BMP-9 [8], 13.6 nM; with BMP-10, 0.046 nM; with GDF-11 [9], under 0.001 nM.

B6: ActRIIA-B3 (SEQ ID NO: 97) chimera-Fc protein (Fc fusion)
chain: GAILGRSETQECLFFNANWEKDRTNQTGVEPCYGDKDKRLHCYASWRNSSGSIEIVKQGCWLDDINCYDRTDCVEKKDSPEVYFCCCEGNMCNEKFSYFPEMEVTQPTS
notes: as for B1
Turning to B6, the “IC50, SBE-luciferase reporter” value with Activin A [1] stood at 0.14 µg/mL; with Activin B [2] it was 0.071 µg/mL; with GDF-11 [4] it was 0.13 µg/mL. For the same molecule, the “IC50, BRE-luciferase reporter” value with BMP-9 [3] is over 50 µg/mL. Also, the Kd was 0.0256 nM with Activin A [5]; 0.0248 nM in test [6]; under 0.001 nM in the test with Activin B [7]; 13.6 nM with BMP-9 [8]; 0.0122 nM in the test with BMP-10; under 0.001 nM with GDF-11 [9].

On to B7, for which the Kd in [10] and in [11] was under 0.001 nM in each case.

In test [10], B8 came in with a Kd of 0.0448 nM.

B9 gave a Kd in [10] of under 0.001 nM.

Take B10: the dissociation constant Kd turned out to be 0.0175 nM in test [10] and 0.0105 nM in test [11].
